The record followed here is US20240383984A1 (Genentech, published 2024).

Residue numbers refer to the chain shown, from its start.

Experiment [1] addresses T1, human FcRH5 protein fragment (soluble) (human, UniProt Q96RD9 16-851).
T1 construct: whole entry named; also called soluble human FcRH5; Human FcRH5 (BIACORE analyte)
T1 sequence: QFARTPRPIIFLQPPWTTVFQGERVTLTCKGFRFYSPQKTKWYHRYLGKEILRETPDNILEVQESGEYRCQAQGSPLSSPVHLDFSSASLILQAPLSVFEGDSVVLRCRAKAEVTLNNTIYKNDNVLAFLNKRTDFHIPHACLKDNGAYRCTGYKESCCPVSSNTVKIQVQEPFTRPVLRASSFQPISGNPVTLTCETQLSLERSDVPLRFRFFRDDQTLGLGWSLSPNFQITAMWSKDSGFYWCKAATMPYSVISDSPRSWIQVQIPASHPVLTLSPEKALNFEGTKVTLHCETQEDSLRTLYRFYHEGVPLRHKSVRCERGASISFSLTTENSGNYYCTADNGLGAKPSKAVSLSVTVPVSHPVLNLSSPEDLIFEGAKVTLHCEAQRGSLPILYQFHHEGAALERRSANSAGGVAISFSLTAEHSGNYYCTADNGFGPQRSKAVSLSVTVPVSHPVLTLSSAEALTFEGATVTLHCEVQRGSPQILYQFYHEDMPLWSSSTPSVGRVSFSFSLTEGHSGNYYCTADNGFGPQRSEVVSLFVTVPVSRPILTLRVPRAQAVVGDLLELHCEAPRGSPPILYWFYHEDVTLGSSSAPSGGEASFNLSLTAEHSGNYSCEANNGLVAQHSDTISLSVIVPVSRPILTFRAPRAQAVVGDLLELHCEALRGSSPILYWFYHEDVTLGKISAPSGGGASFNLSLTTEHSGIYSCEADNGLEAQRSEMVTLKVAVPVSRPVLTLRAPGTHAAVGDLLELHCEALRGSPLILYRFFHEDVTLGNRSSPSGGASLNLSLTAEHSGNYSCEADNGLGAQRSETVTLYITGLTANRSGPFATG
Description: SPR, hIgG capture, 1:1 model. The procedure:
Briefly, a human IgG capture surface was generated on a Series S CM5 chip using amine coupling and the human IgG capture kit (GE Life Sciences, Piscataway, NJ). Test antibodies were then captured on flow cells 2, 3, or 4, with flow cell 1 used as a reference. An FcRH5 protein fragment was used as the analyte, with a flow rate of […]. Between injections the capture surface was regenerated by a 30-second injection of 3M magnesium chloride or 10 mM glycine, pH 1.5. Interactions were assessed at 25° C. in 10 mM HEPES pH7.4, 150 mM NaCl, and 0.05% Tween 20 (HBSP). Reference data from the reference flow cell and from injection of buffer alone were subtracted prior to kinetic analysis. Kinetic information was calculated by fitting data to a 1:1 binding model. Reference subtraction and data fitting were performed using BIAevaluation software (GE Life Sciences, Piscataway, NJ).
Kinetic characterization experiments were carried out (see Table 8). In these experiments, binding of soluble FcRH5 protein fragment to purified antibodies in human TDB antibody format was analyzed at six different non-zero concentrations (a 1:3 dilution series, one concentration injected twice as a replicate). Flow rate was set at 40 μl/min and association and dissociation monitored for 600 s.
For orientation: Surface plasmon resonance follows binding to a sensor surface in real time, without labels.

The target in experiment [2] is T2, human FcRH1 (full-length, on SVT2 cells) (human, UniProt Q96LA6 17-429).
T2 construct: whole, on cells; also called SVT2-FcRH1
T2 sequence (looked up): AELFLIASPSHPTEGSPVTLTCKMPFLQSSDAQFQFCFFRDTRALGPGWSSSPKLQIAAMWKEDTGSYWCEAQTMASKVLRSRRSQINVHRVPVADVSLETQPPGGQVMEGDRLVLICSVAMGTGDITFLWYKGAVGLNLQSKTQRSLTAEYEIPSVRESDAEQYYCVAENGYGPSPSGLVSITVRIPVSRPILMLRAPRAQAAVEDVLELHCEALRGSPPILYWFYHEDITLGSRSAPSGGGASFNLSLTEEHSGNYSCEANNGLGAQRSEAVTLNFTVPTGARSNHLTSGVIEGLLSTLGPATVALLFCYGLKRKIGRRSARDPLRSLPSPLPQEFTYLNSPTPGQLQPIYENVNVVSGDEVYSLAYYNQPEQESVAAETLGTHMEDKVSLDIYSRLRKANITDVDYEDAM
Briefly: FACS, SVT2 cells. Background: A flow cytometer gives signals particle by particle.

Experiment [3] addresses T3, human FcRH3 (full-length, on SVT2 cells) (human, UniProt Q96P31 18-734).
T3 construct: whole, on cells; also called SVT2-FcRH3
T3 sequence (looked up): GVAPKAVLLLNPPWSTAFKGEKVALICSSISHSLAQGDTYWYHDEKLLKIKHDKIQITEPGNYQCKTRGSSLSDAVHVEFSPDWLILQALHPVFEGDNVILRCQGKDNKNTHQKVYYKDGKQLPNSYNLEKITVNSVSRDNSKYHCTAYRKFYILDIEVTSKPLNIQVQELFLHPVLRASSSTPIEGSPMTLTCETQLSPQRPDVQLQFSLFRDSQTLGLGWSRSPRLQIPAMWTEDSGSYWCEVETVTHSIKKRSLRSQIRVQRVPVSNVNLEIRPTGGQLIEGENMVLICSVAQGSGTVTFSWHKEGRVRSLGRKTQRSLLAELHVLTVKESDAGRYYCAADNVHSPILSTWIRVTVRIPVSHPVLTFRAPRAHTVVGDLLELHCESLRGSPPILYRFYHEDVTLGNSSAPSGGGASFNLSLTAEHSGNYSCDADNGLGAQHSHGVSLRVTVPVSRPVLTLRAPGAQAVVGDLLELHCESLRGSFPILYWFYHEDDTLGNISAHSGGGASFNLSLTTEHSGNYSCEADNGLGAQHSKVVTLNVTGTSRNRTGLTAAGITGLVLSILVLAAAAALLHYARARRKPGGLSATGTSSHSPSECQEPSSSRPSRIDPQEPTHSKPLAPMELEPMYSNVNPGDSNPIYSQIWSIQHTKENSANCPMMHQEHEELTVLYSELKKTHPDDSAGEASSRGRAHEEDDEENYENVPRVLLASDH
Briefly: FACS, SVT2 cells.

B1: hu1G7.v1.4/38E4.v1 TDB (bispecific antibody, V domains shown)
VH 1: EVQLVESGPGLVKPSETLSLTCTVSGFSLTRFGVHWVRQPPGKGLEWLGVIWRGGSTDYNAAFMSRLTISKDNSKNQVSLKLSSVTAADTAVYYCSNHYYGSSDYALDNWGQGTLVTVSS
VL 1: DIQMTQSPSSLSASVGDRVTITCKASQDVRNLVVWFQQKPGKAPKLLIYSGSYRYSGVPSRFSGSGSGTDFTLTISSLQPEDFATYYCQQHYSPPYTFGQGTKVEIK
VH 2: EVQLVQSGAEVKKPGASVKVSCKASGFTFTSYYIHWVRQAPGQGLEWIGWIYPENDNTKYNEKFKDRVTITADTSTSTAYLELSSLRSEDTAVYYCARDGYSRYYFDYWGQGTLVTVSS
VL 2: DIVMTQSPDSLAVSLGERATINCKSSQSLLNSRTRKNYLAWYQQKPGQSPKLLIYWTSTRKSGVPDRFSGSGSGTDFTLTISSLQAEDVAVYYCKQSFILRTFGQGTKVEIK
notes: knob-into-hole TDB; also called 1G7.v1.4 TDB; 1G7.v1.4 (TDB format)
Regarding B1, in experiment [1], the Kd – broadly, the free concentration of one partner at which half of the binding sites on the other are occupied at equilibrium, for simple one-to-one binding – came out at 2.4 nM; the koff (as a rule, a measure of how fast the partners let go of each other) came to 0.001 s⁻¹; the kon (usually the rate constant with which the complex forms) worked out at 500000 M⁻¹ s⁻¹.

B2: 1G7.v85/38E4.v1 TDB (bispecific antibody, V domains shown)
VH 1: B1 VH 1 with M64V
VL 1: B1 VL 1
VH 2: B1 VH 2
VL 2: B1 VL 2
notes: knob-into-hole TDB; also called 1G7.v85 TDB; 1G7.v85 (TDB format)
Regarding B2, in experiment [1], the Kd was 2.4 nM, the koff was 0.001 s⁻¹ and the kon came out at 400000 M⁻¹ s⁻¹.

B3: 15G8 (antibody, mouse IgG2a, V domains shown)
VH: EVQLQQSGPELVKPGASVKMSCKASGYTFTNYVIHWMKQKPGQGLEWIGYISPYNDYTKYNEKFEGKATLTSDKSSNTAYMELSSLTSEDSAVYYCARRDYYGSSDYWGQGTTLTVSS
VL: QIVLTQSPAIMSASPGEKVTMTCSASSSVDYMHWYQQKSGTSPKKWIYDTSKLASGVPARFSGSGSGTSYSLTIGSMEAEDAATYYCQQWSSNPPTFGGGTKLEIK
notes: mouse mAb, Campaign C; recombinant murine IgG2a for SPR; also called mAb 15G8
As to B3, the binding result in experiment [2] and in experiment [3] was “no binding” each time.

B4: 17B1 (antibody, mouse IgG2a, V domains shown)
VH: QVQLQQSGPELVRPGVSVKISCKGSGYTFTHYAMHWVKQSHTKSLEWIGMISSSSGNTNFNQKFMDKATMTVDKSSTTAYLELARLTFGDSAIYYCARWSYYALFDYWGQGTTVTVSS
VL: ENVLTQSPAIMSASPGEKVTMTCSADSSVDYIHWYQQKSNTSPKLWIYDTSKLASGVPGRFSGSGSGNSYSLTISSMEAEDFATYYCFQGSGYPLTFGSGTKLELK
notes: mouse mAb, Campaign C; recombinant murine IgG2a for SPR
On to B4, for which the binding result in experiment [2] and in experiment [3] was “no binding” throughout.
